Reference: the RNAGym collection of RNA variant scans (doi:10.1073/pnas.2313332121)
Fewer inactive variants are shown than the library holds.

B1: TPR 5TU (parent)
chain: GGAUCUUCUCGAUCUAACAAAAAAGACAAAUCUGCCACAAAGCUUGAGAGCAUCUUCGGAUGCAGAGGCGGCAGCCUUCGGUGGCGCGAUAGCGCCAACGUUCUCAACUAUGACACGCAAAACGCGUGCUCCGUUGAAUGGAGUUUAUCAUG

Variants of: B1
Assay: polymerase ribozyme fitness, log enrichment relative to wild type (log ratio); higher = more active; in vitro selection for triplet polymerase activity
Outline: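 One round of in vitro selection, in triplicate, was applied to PCR-built, transcribed mutant libraries of each subunit of a heterodimeric triplet polymerase ribozyme. The steps were annealing with a biotinylated primer, partner subunit and triplets, incubation frozen at −7 °C, gel excision of extended constructs, streptavidin-bead capture and RT-PCR. Fitness is the logarithm, base 2, of genotype enrichment over wild-type enrichment from inverse-variance-weighted replicate averages of Illumina-sequenced inputs and outputs, keeping genotypes with ≥10 input reads and ≥1 read per output.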

Variant | polymerase ribozyme fitness (log ratio)
A3U C108U | -3.59
A3G C75A C93A A97U A98U U101G C118U | ≤ -4.2
A3G A12C C76G C93A C96A G136C | ≤ -4.2
A3U G42U G48C C75G G86A C108A | ≤ -4.2
A3C A121U | 0.339
A3C A23C G74A C85A C103U U130A | ≤ -4.2
A3U A49G G50A C96U G141A | -3.63
A3C U6G A23U A39G U44A A89G C116G | ≤ -4.2
A3U C57U C87U A113C A119G | -3.73
A3U C8A A39U A91G U111A A115U G117U | ≤ -4.2
A3C G11A A19C C54U A122U U135A G143A | -3.73
A3C A22U A37G C54G C57U C85U G88C G117C C129U | ≤ -4.2
A3G A12C A37C G48A A49C U78G G86A C87G C99U A142C U146G | ≤ -4.2
A3U C38U C96U G126U G143A | ≤ -4.2
A3C U4A G71U G88A | ≤ -4.2
A3C U7C A47C U55A G59A A73U U82G U146C | ≤ -4.2
A3G C43U G65U G68A G71A G86U G112U G152A | ≤ -4.2
A3G U15C C93G U146G | -2.23
A3C U6G A49C G65A G71A G88C C93A U135C | ≤ -4.2
A3G C51A | -1.26
A3C G34C G48C A106U A138G A150G | ≤ -4.2

Variant | polymerase ribozyme fitness (log ratio)
A3G A20G G48C G50C G67C G68A G83A U139C | ≤ -4.2
A3G A24U U55A C85A | -2.17
A3U G59A C99U U144C A150G | ≤ -4.2
A3U A41U | -1.29
A3C U15G A24G G117A U151A | ≤ -4.2
A3C U31G A52C U56A U61G A91C C108G A113U | ≤ -4.2
A3C A47G A52G C87U C96U C99U G124A | -4.19
A3G A22U A40U U44C C96G C116U U134C | ≤ -4.2
A3U C5G A21U C85U A122G G140U U144G | ≤ -4.2
A3C A41G G50C U53G G67U G86C G128U C129U U146G C149U | ≤ -4.2
A3C C79U C93U C95U | ≤ -4.2
A3G A16C A26C U45A G59C G86C U130G U145G | ≤ -4.2
A3U G67U A107U | ≤ -4.2
A3U G92A G136C | -4
A3U C14G A28C A91U A97C A122C | ≤ -4.2
A3U A12G C43U C54U G71U C79A A120C | ≤ -4.2
A3U G92A A113G G133U A142U U146G | ≤ -4.2
A3U C18U G50A G68A C76A G92C C93U | ≤ -4.2
A3C U4G A16G U33G C43U G92U A106G | ≤ -4.2
A3G U9G C36A G67A G68C A73G U135G | ≤ -4.2
A3C C5A A52C G65U C99G G133C | ≤ -4.2

Variant | polymerase ribozyme fitness (log ratio)
A3C U61A G84A G92A A120C | ≤ -4.2
A3U A40G C54U C95A C149G | ≤ -4.2
A3C U7A C10U U53A G92C A138G | ≤ -4.2
A3U A49G | -0.232
A3C U15A A19U C75U C87U | -1.71
A3C G141U | 0.471
A3C U6G C57U G74C C149U | ≤ -4.2
A3G A47G U61A G94U C99A C108U U135G | ≤ -4.2
A3U A21C G62C C63U A73U C79U G84A C93G A106U U145G | ≤ -4.2
A3G G94A | -1.67
A3U A16C A20C A47U U53G G86A A110G | ≤ -4.2
A3C G58U C76U G84A C85U G94A | -2.53
A3U C54A | -2.21
A3U C93U C118U | -1.3
A3G A23C A24U C51U U55G G84A C85A G92U | ≤ -4.2
A3G A17U A47U U55G | -0.403
A3G U13A G42C C75U A138U | ≤ -4.2
A3U G58A C87G U101C A113U C131G | ≤ -4.2
A3U A37U U56A A97U | -3.82
A3U A39G A52G U144C | -3.97
A3C A16G A24U G48U G74U G83A A107C U130A | ≤ -4.2

Variant | polymerase ribozyme fitness (log ratio)
A3U A49G G84C | -3.89
A3G C38G G42U G59C G70C U78C C87A | ≤ -4.2
A3C C5U G62C | -1.89
A3U C36A U55C C79A C99A U145G | ≤ -4.2
A3G A24U C69G C93G A119G C132G U139A | ≤ -4.2
A3C C57U C93A | -1.56
A3U G48C C51U C57U C95A A115C | ≤ -4.2
A3U G58A C96G | -1.09
A3C U6G G25U G83A | -3.47
A3U G46C U77C G86U A98U A121U U127A | -4.08
A3C A47C G59C G86A | -3.89
A3C C14G C27U C85U U144G | -2.9
A3G U6A U31G G88U | ≤ -4.2
A3U C27G C38U G48U G58U C79G G92A C105U G117U G143U | ≤ -4.2
A3U G59C | -0.00695
A3C G58A G94A | -0.578
A3C A12U G58C C118U | -1.52
A3G C18U G50C C87G A97G C99U U146G | ≤ -4.2
A3G U33G U55A A66C C108U | ≤ -4.2
A3G U82G C95U U102G | -3.62
